Test results published in a protein production outcome set (Wang et al. 2014).

Test: label from the status in PepcDB records
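Note: failed if final PepcDB status was selected cloned or expressed and not failed if soluble or beyond.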

Sequence	protein production
GSSGSSGDGTCTGAMPDGALDTAVCADEVGSEEDLYDDLHSSSHHYSHPGGGGEQLAINELISDGSVVCAEALWDHVTMDDQELGFKAGDVIEVMDATNREWWWGRVADGEGWFPASFVRLRVNQDEPADDDAPLAGNSGAEDGGAEAQSSKDQMRTNVINEILSTERDYIKHLRDICEGYVRQCRKRADMFSEEQLRTIFGNIEDIYRCQKAFVKALEQRFNRERPHLSELGACFLEHQADFQIYSEYCNNHPNACVELSRLTKLSKYVYFFEACRLLQKMIDISLDGFLLTPVQKICKYPLQLAELLKYTHPQHRDFKDVEAALHAMKNVAQLINERKRRLENIDKIAQWQSSIEDWEGEDLLVRSSELIYSGELTRVTQPQAKSQQRMFFLFDHQLIYCKKDLLRRDVLYYKGRLDMDGLEVVDLEDGKDRDLHVSIKNAFRLHRGATGDSHLLCTRKPEQKQRWLKAFAREREQVQLD	not failed
MELTQTHLLPVPLQTAWDALNDPAVLQRCIPGCESVTAATEHAYDIAMTAAVGPVKARFKGRMELADIVPPRSYTLHFDGQGGAAGFGKGTAQVQLAPEGPTVTRLSYTAHAQVGGKLAQIGSRLIDGAARKLADEFFQRFASEFGPAGGTGPLDAAPADQAIPDLASGELAAHGAPRTPLISPAVQPRNPWPWIIVALVAIVAAYLFLHHGA	failed
MKIVGIYLAAGKSRRTGPGLHKLYLPTGNTLLGNKALHTSLSSNLSDVIVVSNQPSWLLHYTQVERVHILSCEKSCLGQSYSLHCGLEKAESMNADGVVVMLADQPFITVKLLNSLIDSYEHLPQLDYVAASFQGIPQPPILFSKGIFPSLKKLKGDQGARSIFFDKSFQGKITVYSDAKLFYDVNTIEDYNVIKNSLLLEHHHHHH	failed
LSHGDFELAVPGGPVAAYYAAPAGREQLPIVLVVQEIFGLHEHIKDVCRRLAHDGYLAVSVNLYQRQGDASRYDNIPGLVAELVSKVPDEQVHADLDASLAWAAAHGGDGARVGVTGFCWGGRTTWMYAARNPAVKAGVAWYGRLSSGHGPLIKQVPLDVAGSLHAPVLGLYGGKDESIPLDDVRAMEARLQQGGAPAQASRIVVYPQAGHAFLADYRPSYRAADAQDGWRRMLDWFALYL	failed
GQRVLFGSGEAAQNLAAEISRLDAKNVMVVAGDFELPMARQVAADIDVKVWHSNVVMHVPIETAEEARSVAKENDIDVVVCVGGGSTTGLAKAIAMTTALPIIAVPTTYAGSEATNVWGLTEAARKTTGVDNKVLPVTVIYDSALTMSLP	not failed
MELFTEAWAQAYCRKLNESEAYRKAASTWEGSLALAVRPDPKAGFPKGVAVVLDLWHGACRGAKAVEGEAEADFVIEADLATWQEVLEGRLEPLSALMRGLLELKKGTIAALAPYAQAAQELVKVAREVA	not failed
MLGLHGRKPAQVIVEPVAKLMIKLKVTPNQLTLVSAGLTVGVALLLIPTGHLIWAAVLTGLFAAFDMIDGTVARMQGGGTKFGATLDATCDRITDGALFGAITWWLVYSYDAPQALVAASLVCLVASQVISYVKARGEASGFTMDGGLVERPERLIVSLVGLGLTGMGVPYAIDVALWALAAGSIYTVVQRLVMAGKSPLAKEFTKAPAGAKADYSNTK	failed
GSSGSSGDKKAYFYHSSFQILNVEYTEALNSPATHEYRTLSERIEAMITDEFRGSSLKSEFIRTHVVKLRKEGTGVVADVVMKFRSSKRNNRKVMKTRIQSVLRRLSSSGNLEIAPSNEITSLTDQDT	not failed
MMTLSDLPSDLAEEVLSKIPVTSLRGVRATCKKWNTLSKDRSFTRKHLAQAKAAAAREFMVVMVMDFQVYLMGINLHKDVDATINGQGKLISLDDSNQVDISYVYHCDSLVLCIPKDCARLVVWNPYWGQTLWFKPTSLRHFPHWYMYAIGYQMRRGNRDAKTSRWLLTCRPTTKTITKNTIDHL	failed
MGHHHHHHSHMVSDIRRFLSAFHEPQVGLIQAAQQLLCDEQAPQRQRLLADLLHNVSQNIAAETRAEDPPWFEGLESRFQSKSGYLRYSCESRIRSYLREVSSYPSTVGAEAQEEFLRVLGSMCQRLRSMQYNGSYFDRGAKGGSRLCTPEGWFSCQGPFDMDSCLSRHSINPYSNRESRILFSTWNLDHIIEKKRTIIPTLVEAIKEQDGREVDWEYFYGLLFTSENLKLVHIVCHKKTTHKLNCDPSRIYKPQTRLKRKQPVRKRQ	failed
MKQIRLLAQYYVDLMMKLGLVRFSMLLALALVVLAIVVQMAVTMVLHGQVESIDVIRSIFFGLLITPWAVYFLSVVVEQLEESRQRLSRLVQKLEEMRERDLSLNVQLKDNIAQL	not failed
MKVVERYIMRRAFVVFLAALVWTLAIVWTTQVLAKIDLVTDSGQSSLTFFEVAALILPSIIPIVVPFALVVAVAQTLSVMNSDSELVVVNAAGASRWTIVRPIMLLALAASVFSFAVDNGIDPYARQKNRALVAQSRADLLSLIIQEGTFRKIEDGLFLQIGERLPDNRLGGIFVADSREEGVNLVYYAKTGSVVERGGEKVLMMNDGVIHRKTLTGDLSVIRFTSYAFDMSAFMAAASEVTLLPKDQTTQYLLNPNVNDKLYQQAPQQYRAEIDQRFSEWLYSMVFALIALAVAGDARSHREARVNPLITAITISLFVRWLGFFAASKADEVPQYAYMVYGVPIVASAVAIWFIVSNRTMELPVAWADWMTNLASRVGDGWNALKLRWSRRGTSGQGIG	failed
MKGSVKKDKKTGKYFYIVDIDIDPLTGKRKQKKKRGFTSKKEAENALTNLLSEVHTGTYVEPSKLSYGEYLESWFNTKRHSVGIQTAKVLKGYLNSRIIPSLGNIKLAKLTSLHMQNYVNSLRDEGLKRGTIEKIIKVIRNSLEHAIDLELITKNVAAKTKLPKADKEELTVWNEQEVQLFLKAAQDGRYSIVFHMALVTGMRQGELLGLRWKDVDLEKGHLIISQTLSHDGKTFLVGGKTKSSLRKILLPASTIAKLKKHRAVILKEKLSQGEEYQDNDLVMCTPSGTPINPANVRRSLNALIQKAAVPKIRFHDLRHTHATLLLAKGVNVKVISERLGHSNIKITLDTYSHVLPTMQEDAVNKMEEIL	failed
MSNSTEPALAIITVTYSPGKHLGAFLSSVKEATAQPTYVVLADNGSVDGVPEAAAQADPSVEFFPTGGNIGYGSAINAAVRKLAPLRESGKINAEFFVLSNPDVVFEPGSIDAMVQCASRHPQAADIGPYIRQSDGSAYPSARQVPTIKNGVGHALFSSVWPSNPWSRAYRDNRDMTTERTAGWLSGSCLLVRWDAFEQIGGFDERYFMYMEDVDLGDRFGRAGFDNVFCPDAVITHAVGHAAGKHPEKMLPAHHDSAYRFQADRHPGLRYLPLRVLLRVGLKLRAVVAVAAAKFKLEHHHHHH	not failed
MASSSSSPTPSAAAAVSPLTEEELTLTVKWNGKEYTVRICADDSVAELKRRICLLTTVLPKRQKLLYPKIGNKLSDDSLLLSSISFKPSLKMTMIGTVEDDIIVDQAESPEIVDDFELGKEEAVDVKDKEVNKQKLRRRIDQYKINLRTPCRQGKKLLVLDIDYTLFDHRSTAENPLQLMRPYLHEFLTAAYAEYDIMIWSATSMKWVELKMTELGVLNNPNYKVTALLDHLAMITVQSDTRGIFDCKPLGLIWALLPEFYNPGNTIMFDDLRRNFVMNPQNGLTIKPFRKAHANRDTDQELVKLTQYLLTIAELSDLSSLHHSRWESFSQDNVKRRRQE	failed
PTSSTTAALVMGDALAVALLEARGFTAEDFALSHPGGALGRKLLLRVNDIMHTGDEIPHVGLQATLRDALLEITRKNLGMTAICDDDMNIIGIFTDGDLRRVFDTGVDMRDASIADVMTRGGIRIRPGTLAVDALNLMQSRHITCVLVADGDHLLGVVHMHDLLRA	not failed
MDTDFRVTGRNAAALFALTIHRGDGMVLLGMDWKNGRPPIDFVGFAIQYREPGTDFFKNVRNRIGFPGQPVPADGIRTTEAPIQKFRWVHFPFNADLPGKFLYRVTPKFMDAAGGLASGEAQEAELALMRETIPGKLNVAFTRGFVSSQAFVRNFAPDAPTIITLVPPVGDEGLDFVPTHADAERALAWMGFEARAETLDLLDRAQAAGAEVRVIAYDLNLPEVVTRLEALGPKLKIIIDDSARTDGHGRPDSPETKAAERLIASAGAANVKRQHMANLQHQKSIAVRGGGISTVLYGSTNLSWRGLYVQSNNSLAVHSEKAIDDYFTAFESYFTAKRAADFRSSASSAGWIDLGLDGVDAKVAFSPHSDANGRLDEIGADIDTAQSSVLFSLAFLGQMTRGAIGPALGRALERPEVHVMGIADAEVRAGNLGLNVLTPDNRRRVVRAAALTGNVPPPFLTEPSGLAGVDGNQRGTRMHHKFVVLDFDKPTARVYLGSYNFSNPADDENGENLVVVRDRTVATSYMIEALRMYDHYVFRVASEASDGPARPLELKRPPQPGGTPWFERDWTDPIRARDRELFARAE	failed
MEKNFILSVGMSVMFLFISSIKTVQAQQLGIGVKTELNGKVRFCNYDEAYFMPDTNTRIKVTGLEIAYDSSLNYYDIFVNVKGDKVNLHIKYSNGGEGAYIYKGIDRISKMDVVVTTKKKLSLYANNYGVNSYKEVESSVGIIIVFPKTYMISSIVPIKNKVETVNELSTQLRKGVITDSDGYTNIRKSNSVNSEIIGKIVDREVFTYWETNDNWYIVQTAKGIKGYVHKSRIKPVEERNEQKIRYYKVKNGDKIQDIAEKLGVSIDTICKLNRVKITTVLREGQALRISR	failed
MKFQPLGERVLVERLEEENKTSSGIIIPDNAKEKPLMGVVKAVSHKISEGCKCVKEGDVIAFGKYKGAEIVLDGTEYMVLELEDILGIVGSGSCCHTGNHDHKHAKEHEACCHDHKKH	failed
QLPSYRFNPNNHQSEQTLCVVCMCDFESRQLLRVLPCNHEFHAKCVDKWLKANRTCPICRAD	not failed
MSKFDGYFLRQLLVLCGFFAFVLVGVFWISKAVSLFDRLISSGQTAMVALEFTALTLPTLVRTVMPMAAFCATVYVTNRLNRESEMTVMLATGSSPFRLARPVILFGLVCAAMLATITLYLRPAAMLRLEARQAEVAGDMTAQLLNDGQFMHPVKGVTVYIGKIDRDGTLNDVYLSDRRAPERVVTYTSSKAFLARSGEQIALVMVEGTALQMETGRRTLSTTVFRDFSYDISALAKRDIERRQDIRGMPTLALATAFDGEGLAETYSRGEISEELQERLSWIGVSVAVTLIGFSTLMLGTFSRFGLWPQLIAAFAGLIALEGMRSTATAFVGSHPGLWWVQHAPALGGIALSILFLKLAGRPLRLRRYPDTGSV	failed
MNEYQIKFKEDCYYAENNAGKVIGELLYSKIKQGKVISINQVRVDPLFRNRGIAGKLLKKAVDDAVKNGQLIKAVCSFSKKAFLQNKNYQKYEYKEN	failed
MTIFRFADGNSMTTKTNLLPHIPSSDAIISRWRWLAIIVSLVMALLASAFILLLSNAVDREVAQLNTSSELREQADLVLISLIDMAVADRSYAKNHKAEDKARFEHAARNLDDILEYIELIVYAHPQWYEWFTSFKKEVEARKAFMNDHMRALDALPDQSSQPSSSSEIPKIQVARLAQLMTSFINGDDVVRQKQREGIALMRAALTLAAIVSVVSTFMSAYFVINRFHRDVRSLKMYQLLLHSENIALEARVKERTQELERARNHAEKERQRVEMLLQDVSHRIGNSLGTVSSLLGLQLNRSDNEEVRSVLGAARDRIQTISTAHRRLRLSDDMETTLLAEFLSSVVHDVELAMPLELRENITIHTNFKECRLSSRDATTLGIILGELLTNSLKHAFPDKRSGDIYISFGPQKNGQLMLIVEDNGVGMKNQTQEKKTGLGRVVVEQLCMQFGEKPLFETSALGGTKIVIPLPKLTPNASKEAYA	failed
DDFETSLTELEPLEKDAYIVRLVFAGSTTTEPIVSSLSTAYDIKINILEANIKNTKNGTVGFLVLHIPYISSVDFGKFEKELIERQVKMEVLRHG	not failed
